From patent US20140294861A1 (University of Pennsylvania, published 2014)
One block for each binder: values may come before it.

Columns and labels:
[1] = biological target: T1, human B7-H4 expressed at the cell surface (human, UniProt Q7Z7D3 25-282); experiment: cell-based or functional assay
T1 sequence (looked up): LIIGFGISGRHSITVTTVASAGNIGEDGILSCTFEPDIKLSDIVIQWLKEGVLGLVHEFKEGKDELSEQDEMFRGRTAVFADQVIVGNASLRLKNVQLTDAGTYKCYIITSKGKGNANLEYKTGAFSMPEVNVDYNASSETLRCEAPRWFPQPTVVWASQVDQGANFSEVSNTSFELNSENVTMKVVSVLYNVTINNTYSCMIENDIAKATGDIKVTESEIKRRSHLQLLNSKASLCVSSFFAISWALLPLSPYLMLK

[2] = biological target: T1, human B7-H4 expressed at the cell …; experiment: flow cytometry on macrophages
[3] = biological target: T2, recombinant B7-H4 protein (extracellular domain, IgC+IgV, fused to 6xHIS Tag) (human, UniProt Q7Z7D3 29-259, biotinylated in the capture ELISA (site not stated)); experiment: capture ELISA, immobilized scFv, biotinylated rB7-H4, SA-HRP
T2 construct: also called rB7-H4; rhB7-H4
T2 sequence: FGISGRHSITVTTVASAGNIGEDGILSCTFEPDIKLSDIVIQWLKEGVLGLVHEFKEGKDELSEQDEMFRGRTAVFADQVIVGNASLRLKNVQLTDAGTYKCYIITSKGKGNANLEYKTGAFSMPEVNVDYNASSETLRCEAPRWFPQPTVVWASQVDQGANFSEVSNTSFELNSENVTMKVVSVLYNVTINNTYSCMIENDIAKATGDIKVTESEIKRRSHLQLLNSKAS
Experimental: FIG. 6A is a schematic representation of protein-based (FIG. 6B) and cell-based isolation (FIG. 6C) strategies. Protein-based and cell-based isolated anti-B7-H4 scFvs were plastic-immobilized and incubated with serial dilutions of biotinylated recombinant B7-H4 (black diamonds) or irrelevant control antigen (BSA, grey triangles). Protein binding to scFv was detected with SA-HRP. Colorimetric signal was developed with TMB substrate solution, quenched with sulfuric acid and read at 450 nm on a Biotek ELISA reader.
The yeast-display scFv library derived from ovarian cancer patients was first screened by magnetic and flow sorting for anti-B7-H4 scFv using progressively decreasing concentrations of human biotinylated B7-H4 recombinant protein (rhB7-H4). Briefly, the library was enriched magnetically 3 times for scFv that bound to 1 ug/ml biotinylated rhB7-H4, and two times flow sorted with 1 ug/ml and 0.5 ug/ml biotinylated rhB7-H4. Selected yeast-display scFv were flow sorted for c-myc/B7-H4 double positive clones. […] Binding to serial dilutions of biotinylated rB7-H4 or control protein was detected using streptavidin-HRP. Colorimetric signals were developed with TMB substrate solution quenched with sulfuric acid and read at 450 nm on a […] Sequencing of scFv clones 26 and 56 was identified 2 unique clones that were then produced and Ni purified.

B1: anti-B7H4 scFv clone 3#68 (scFv)
scFv: QPGLTQPPSASGTPGQRVTISCSGSSSNIGSNYVYWYQQFPGTAPKLLIYRNNQRPSGVPDRFSGSKSGTSASLAISGLRSEDEADYYCAAWDDSLSVWVFGGGTKVTVLGGSSRSSSSGGSGSGGGGQVTLKESGAEVKNPGSSVKVSCKASGGTFSSYAISWLRQAPGQGLEWMGWINPNSGGSDYAQRFQGRVTMTRDTSINTVYMELSRLRSDDTAVYYCARVEKRGYYYGMDVWGQGTMVTVSSFEGSEQ
IFN-γ production of MART-1 TCR T cells in the presence of B7-H4+ TAMs [1]: > 2 fold

B4: anti-B7H4 scFv clone 3#54 (scFv)
scFv: RPVLTQPPSAAGTPGQRVTISCSGSSSNIGSNYVYWYQQLPGMAPKLLIYTNNQRPSGVPGRFSGSKSGTSASLAISGLRSEDEADYYCAAWDDSLNGWVFGGGTELTVLGGSSRSSSSGGGGSGGGGQVQLQESGPGLVKPSETLSLTCNVSGRSVSSGFYWSWIRQRPGKGLEWVGSIYRSGLTYYNPSLKSRVTISVDTSKNQFSLKLSSVTAADTAVYYCARATPWYYYGMDVWGQGTTVTVSSFEGSEQ
IFN-γ production of MART-1 TCR T cells in the presence of B7-H4+ TAMs [1]: > 2 fold

Other lines, results leading:

binding result [2]: binds
binding result [3]: binds
B2: anti-B7H4 scFv clone 56 (scFv)
scFv: QPVLTQSHSVSESPGKTVTITCTGSGGNIATQYVQWYQQRPGSGPTTVIYDDDQRPSGVPDRFTGSIDSSSNSASLTISGLKTEDEADYYCQSYDSTNHGVFGGGAKVTVLGGSSRSSSSGGGGSGGGGQVQLQQWGPGLVKPSETLSLTCTVSGGSISSSSYYWGWIRQPPGKGLEWIGSIYYSGSTYYNPSLKSRVTISVDTSKNQFSLKLSSVTAADTAVYYCARLSKGYSSSWAYSYYGPDAWGQGTMVTVSSFEGSEQ
notes: Human scFv from a yeast-display library, made soluble from the yeast secretion vector p416-BCCP; Soluble scFv was detected through V5 and purified on Ni; also called scFv #56; 56 scFv

IFN-γ secretion of MART-1 TCR T cells in the presence of B7-H4+ TAMs [1]: 1.5 fold
B3: anti-B7H4 scFv clone 26 (scFv)
scFv: DIVMTQTPATLSVSPGKRATLSCRASQSVSSNYLAWYQQKPGQAPRLLIYGASRRATGIPDRFSGSGSGTDFTLTISSLQAEDVAVYYCQQYGSSPRTFGQGTKLEIKGGSSRSSSSGGGGSGGGGQVTLKESGAEVKNPGSSVKVSCKASGGTFSSYAISWLRQAPGQGLEWMGWINPNSGGSDYAQRFQGRVTMTRDTSINTVYMELSRLRSDDTAVYYCARVEKRGYYYGMDVWGQGTMVTVSSFEGSEQ
